Source: paper PMC5206748, “Disruption of cell adhesion by an antibody targeting the cell-adhesive intermediate (X-dimer) of human P-cadherin” (Scientific Reports, 2017)
Residue numbers refer to the chain shown, from its start. Names may count otherwise.

What was measured:
Settings in all cases: both partners purified
human E-cadherin EC12 [1] = molecular target: T1, human E-cadherin EC12 (Homo sapiens, UniProt P12830); test: SEC; the solution left in the ITC cell (antibody 25 μM titrated with human E-cadherin EC12 250 μM at 30 °C) injected on Superose 12 10/300 GL; 0.5 mL/min; 25 °C; 10 mM HEPES, 150 mM NaCl, 3 mM CaCl2, pH 7.5
T1 construct: human E-cadherin, domains EC1-EC2; also called E-cad EC12; source: E. coli Rosetta2 (DE3), purified (Ni-NTA, SUMO tag cleaved with Ulp1, SEC)

[2] = molecular target: T2, human P-cadherin EC12 K14E (residues 1-213) (Homo sapiens, UniProt P22223, point mutant); test: ITC; iTC200; antibody in the cell (15-30 μM), P-cadherin construct in the syringe (150-300 μM); 15 °C; one-site binding model
T2 construct: human P-cadherin, residues 1-213 with K14E; numbers count on: the mature protein; also called strand-swap dimer construct; source: E. coli Rosetta2 (DE3), purified (Ni-NTA, SUMO tag cleaved with Ulp1, SEC)

[3] = molecular target: T3, human P-cadherin MEC12 K14E (additional Met + residues 1-213) (Homo sapiens, point mutant); test: as above
T3 construct: human P-cadherin, residues 1-213 with K14E; numbers count on: the mature protein; also called monomer construct; source: E. coli Rosetta2 (DE3), purified (Ni-NTA, SUMO tag cleaved with Ulp1, SEC)

[4] = molecular target: T4, human P-cadherin MEC1 (additional Met + residues 1-129) (Homo sapiens); test: SPR; Biacore T200; MEC1 immobilised on a CM5 chip by amine coupling (~250 RU); scFv as analyte, 0.49-62.5 nM; 25 °C; 10 mM HEPES, 150 mM NaCl, 3 mM CaCl2, pH 7.5, 0.05% Tween-20; global fitting
T4 construct: numbers count on: the mature protein; source: E. coli Rosetta2 (DE3), purified (Ni-NTA, SUMO tag cleaved with Ulp1, SEC)
T4 chain: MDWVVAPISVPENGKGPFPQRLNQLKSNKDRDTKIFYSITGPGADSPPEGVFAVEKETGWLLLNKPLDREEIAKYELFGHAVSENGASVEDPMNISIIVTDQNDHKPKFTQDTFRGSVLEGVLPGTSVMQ

[5] = molecular target: T2, human P-cadherin EC12 K14E (residues …); test: SPR; scFv (100 nM) captured on anti-His6-tag antibody immobilised on a CM5 chip; P-cadherin construct as analyte (1.25-20 nM strand-swap dimer, 6.25-100 nM monomer); global fitting; the paper puts the lower KD for the strand-swap dimer down to an avidity effect
[6] = molecular target: T3, human P-cadherin MEC12 K14E (additional …); test: as above
human P-cadherin MEC1 = molecular target: T5, human P-cadherin MEC1 (Homo sapiens, UniProt P22223); test: SPR; MEC1 immobilised on a CM5 chip by amine coupling (~250 RU); antibodies as analyte 0.49-62.5 nM; 25 °C; 10 mM HEPES, 150 mM NaCl, 3 mM CaCl2, pH 7.5, 0.05% Tween-20; global fitting
T5 construct: additional Met before the N-terminus; P-cadherin (cadherin-3), human, extracellular domain EC1; source: E. coli Rosetta2 (DE3), SUMO fusion, Ni-NTA, SUMO cleaved with Ulp1, SEC

human P-cadherin MEC12 = molecular target: T6, human P-cadherin MEC12 (human, UniProt P22223); test: ITC; antibodies (15-30 μM) in the cell titrated with cadherins (150-300 μM); 15 °C; one-site binding model
T6 construct: additional Met at the N-terminus of EC12; P-cadherin (cadherin-3), human, extracellular domains EC1-EC2; Fast exchange between monomer and X-dimer; also called X-dimer construct; source: E. coli Rosetta2 (DE3), SUMO fusion, Ni-NTA, SUMO cleaved with Ulp1, SEC

human E-cadherin EC12 [7] = molecular target: T7, human E-cadherin EC12 (Homo sapiens, UniProt P12830); test: ITC + SEC; antibodies (25 μM) in the cell titrated with human E-cadherin EC12 (250 μM) in the syringe, 30 °C; the solution left in the cell was then run on Superose 12 in 10 mM HEPES, 150 mM NaCl, 3 mM CaCl2, pH 7.5
T7 construct: E-cadherin (cadherin-1), human, extracellular domains EC1-EC2; source: E. coli Rosetta2 (DE3), SUMO fusion, Ni-NTA, SUMO cleaved with Ulp1, SEC

[8] = molecular target: T8, human P-cadherin MEC12 (additional Met + residues 1-213) (Homo sapiens); test: ITC; iTC200; antibody in the cell (15-30 μM), P-cadherin construct in the syringe (150-300 μM); 15 °C; one-site binding model
T8 construct: numbers count on: the mature protein; also called X-dimer construct; source: E. coli Rosetta2 (DE3), purified (Ni-NTA, SUMO tag cleaved with Ulp1, SEC)

T3 sequence (chain, as listed by the source point mutant | K14E K14E): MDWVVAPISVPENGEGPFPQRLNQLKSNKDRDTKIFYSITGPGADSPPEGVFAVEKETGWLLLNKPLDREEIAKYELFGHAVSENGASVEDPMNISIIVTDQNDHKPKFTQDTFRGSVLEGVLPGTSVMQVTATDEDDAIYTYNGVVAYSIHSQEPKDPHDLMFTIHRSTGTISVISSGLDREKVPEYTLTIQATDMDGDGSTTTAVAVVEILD

B1: TSP7 single-chain Fv (anti-human P-cadherin antibody) (scFv, V domains shown)
VH: QVQLQESGPELVKPGASVKMSCKASGYSFTAYNMHWVKQSHGKSLEWIGFIDPYSGIITYNQTFKGKATLTVDKSSSTAYMQLNSLTSEDSAVYYCARRGYYDGGFDYWGQGTTLTVSS
VL: DIQMTQTTSSLSASLGDRVTISCRASQDITNYLNWYQQKPDGTVKLLIYYTSRLHSGVPSRFSGSGSGTDYSLTISNLEQEDIATYFCQQDSKHPRTFGGGTKLEIK
notes: VH of TSP7; flexible (Gly4-Ser)3 peptide linker between VH and VL; VL of TSP7; Construct pelB-VH-GS-linker-VL-His6 in pRA2; Residue numbers run through the whole scFv (Asp229 and Arg234 lie in the VL); also called TSP7 (WT); TSP7 WT; not shown: His6, C-terminal, kept
binding result (human E-cadherin EC12 [1]): no binding | stoichiometry N [2]: 0.71 | stoichiometry N [3]: 0.74 | Kd [4]: 8.7 nM | koff [4]: 0.026 s⁻¹ | kon [4]: 3e+06 M⁻¹ s⁻¹ | Kd [5]: 0.24 nM | koff [5]: 0.00015 s⁻¹ | kon [5]: 620000 M⁻¹ s⁻¹ | Kd [6]: 63 nM | koff [6]: 0.03 s⁻¹ | kon [6]: 480000 M⁻¹ s⁻¹

B2: TSP7 S77R single-chain Fv (scFv, V domains shown)
VH: B1 VH with S77R
VL: B1 VL
notes: as the VH of Dm1 (TSP7, PDB 5JYL) with S77R; flexible (Gly4-Ser)3 peptide linker between VH and VL; as the VL of Dm1 (TSP7, PDB 5JYL); source: purified to homogeneity in a soluble monomeric form; not shown: His6, C-terminal, kept
Kd [5]: 0.53 nM | koff [5]: 0.00039 s⁻¹ | kon [5]: 730000 M⁻¹ s⁻¹ | Kd [6]: 71 nM | koff [6]: 0.032 s⁻¹ | kon [6]: 450000 M⁻¹ s⁻¹

B3: TSP7 (anti-human P-cadherin antibody, scFv format) (scFv, V domains shown)
VH: B1 VH
VL: B1 VL
notes: VH of TSP7 (antibody from mice immunised with human P-cadherin EC1-EC5); flexible (Gly4-Ser)3 peptide linker; VL of TSP7; Construct pelB-VH-GS-linker-VL-His6 in pRA2; also called TSP7 WT; not shown: His6, C-terminal, kept
Kd (human P-cadherin MEC1): ~10 nM | stoichiometry N (human P-cadherin MEC12): 1.5 | binding result (human E-cadherin EC12 [7]): no binding

B4: TSP11 single-chain Fv (anti-human P-cadherin antibody) (scFv, V domains shown)
VH: QVQLQQPGTELVKPGASVKLSCKASGYTFTRYWINWVKQRPQGGLEWIGNIYPGSNITNYNEKFKNKATLTVDTSSNTAYMQLSSLTSDDSAVYYCAREGIYDGYFPLFPYWGQGTLVTVSA
VL: ENVLTQSPAIMAASPGEKVTMTCSASSSVSSGNFHWYQQKPGTSPKLWIYRTSNLASGVPARFSGSGSGTSYSLTISSMEAEDAATYYCQQWSGYPWTFGGGTKLEIK
notes: VH of TSP11; flexible (Gly4-Ser)3 peptide linker between VH and VL; VL of TSP11; Construct pelB-VH-GS-linker-VL-His6 in pRA2
binding result (human E-cadherin EC12 [1]): no binding | stoichiometry N [2]: 0.61 | stoichiometry N [8]: 0.71 | stoichiometry N [3]: 0.61 | Kd [4]: 14 nM | koff [4]: 0.0039 s⁻¹ | kon [4]: 280000 M⁻¹ s⁻¹

B5: TSP11 (anti-human P-cadherin antibody, scFv format) (scFv, V domains shown)
VH: B4 VH
VL: B4 VL
notes: VH of TSP11 (antibody from mice immunised with human P-cadherin EC1-EC5); flexible (Gly4-Ser)3 peptide linker; VL of TSP11; Construct pelB-VH-GS-linker-VL-His6 in pRA2; not shown: His6, C-terminal, kept
Kd (human P-cadherin MEC1): ~10 nM | binding result (human E-cadherin EC12 [7]): no binding
